Measurements as given in the RNAGym collection of RNA variant scans (doi:10.7554/elife.80360).

B1: HDV Ribozyme (parent)
chain: GGCCGGCAUGGUCCCAGCCUCCUCGCUGGCGCCGGCUGGGCAACAUUCCGAGGGGACCGUCCCCUCGGUAAUGGCGAAUGGGACCCA

Variants of: B1
Assay: self-cleavage, relative activity (ratio to wild type); higher = more cleavage; co-transcriptional

First: GGCCGGCAUGGUCCCAGCCUCCUCGCUGGCGCCGGCUGGGCAACAUUCCGAGGGGACCGUCCCCCCGGUAAUUGCGAAUGGGACCCA
Second: GGCCGGCAUGGUCCCAGCCUCCUCGCUGGCGCCGGCUGUGCAACAUUCCGAGGGGACCGUCCCCUCGGUAAUGGCCAAUGGGACCCA
The self-cleavage of the first is lower: 0.554 for the first, 0.724 for the second.

Compared with GGCCGGCAUGGUCCCAGCCUCCUCGCUGGCUCCGGCUGGGCAACAUUCCGCGGGGACCGUCCCCUCGGUAAUGGCGAAUGGGACCCA, GGCCGGCAUGGUCCCAGCCUCCUCGAUGGCGCCGGCUGGGCAACAUUCUGAGGGGACCGUCCCCUCGGUAAUGGCGAAUGGGACCCA is higher in self-cleavage: 0.462 for the first, 0.849 for the second.

Compared with GGCCGGCAUGGUCCCAGACUCCUCGUUGGCGCCGGCUGGGCAACAUUCCGAGGGGACCGUCCCCUCGGUAAUGGCGAAUGGGACCCA, GGCCGGCAUGGUCCCAGCCUCCUCGCUGGCGCCGGCUGGGCAACAGUUCGAGGGGACCGUCCCCUCGGUAAUGGCGAAUGGGACCCA is higher in self-cleavage: 0.312 for the first, 0.751 for the second.

Compared with GGCCGGAAUGGGCCCAGCCUCCUCGCUGGCGCCGGCUGGGCAACAUUCCGAGGGGACCGUCCCCUCGGUAAUGGCGAAUGGGACCCA, GGCCGGCAUGGUCCCAGCCUCCUCGCUGGCGGCCGCUGGGCAACAUUCCGAGGGGACCGUCCCCUCGGUAAUGGCGAAUGGGACCCA is lower in self-cleavage: 0.237 for the first, 0.0475 for the second.

Going from GGCCGGCAUGGUCCCAGCCUCCUCGCUGGCGCCGGUUGGGCAACAUUCCGAGGGGACCGUCCCCUGGGUAAUGGCGAAUGGGACCCA to GGCCGGCAUGGUCCCAGCCUCCUCGCUGGCGCCGGCUGGGCAACAUUCGGAGGAGACCGUCCCCUCGGUAAUGGCGAAUGGGACCCA, the self-cleavage falls from 0.767 to 0.332.

First: GGCCGGCAUGGUCCCAGCCUCCUCGCUGGCGCCAGCUGGGAAACAUUCCGAGGGGACCGUCCCCUCGGUAAUGGCGAAUGGGACCCA
Second: AGCCGGCAUGGUCCCAGCCUCCUCGCUGGCGCCUGCUGGGCAACAUUCCGAGGGGACCGUCCCCUCGGUAAUGGCGAAUGGGACCCA
The self-cleavage of the first is higher: 0.157 for the first, 0.095 for the second.

Going from GGCCGGCAUGGUCCCAGCCUCCUCGCUGGCGCCGGCUGGGCAACAUUCCGAGGGGACCGUUCCCUCUGUAAUGGCGAAUGGGACCCA to UGCCGGCAUGGUCCCAGCCUCCUCGCUUGCGCCGGCUGGGCAACAUUCCGAGGGGACCGUCCCCUCGGUAAUGGCGAAUGGGACCCA, the self-cleavage falls from 0.842 to 0.295.

Going from GGCCGGCAUGGUCCCAGCCUCCUCGCUAGCGCCGGCUGGGCAACAUUCCGAGGGGACCGUCCCCUCGGUAAUGGCGGAUGGGACCCA to GGCCGGCAUGGUCCCAGCCUCGUGGCUGGCGCCGGCUGGGCAACAUUCCGAGGGGACCGUCCCCUCGGUAAUGGCGAAUGGGACCCA, the self-cleavage falls from 0.111 to 0.0339.

First: GGCCGGCAUGGUCCCAGCCUCCUCGCAGGCGCCGGCUGGGCAACAUUCCGAGGGGACCGUCCCCUCGGUAAUGGCGAAUGGGACCCG
Second: GGCCGGCAUGGUCCGAGCCUCCUCGCUGGCGCCGGCUGGGCAACAUUCCGAGGGGACCGUCCCCUCGGUAAUCGCGAAUGGGACCCA
The self-cleavage of the first is higher: 0.847 for the first, 0.231 for the second.

Going from GGUCGGCAUGGUCCCAGCCUCCUCGCUGGCGCCGGCUGGGCAACAUUCCGAGGGGACCGUCCCCUCGGCAAUGGCGAAUGGGACCCA to GGCCGGCAUGGUCCCAGCCUCCUCGCUGGAGCCGGCUGGGCAACAUUCCGAGGGGACCGUCCCCUCGGUAAUGGCGAAAGGGACCCA, the self-cleavage falls from 0.616 to 0.386.

First: GGCCGGCAUGGUCCCAGCCUCCUCGCUGGCGCCGGCUGGGCAACAUUCUGAGGGGACCGUCCCCUCGGUAAUGGCCAAUGGGACCCA
Second: GGCCGGGAUGGUCCCAGCCUCCUCGCUGGCGCCCGCUGGGCAACAUUCCGAGGGGACCGUCCCCUCGGUAAUGGCGAAUGGGACCCA
The self-cleavage of the first is higher: 0.867 for the first, 0.213 for the second.

Going from GGCCAGCAUGGUCCCAGCCUCCUCGCUGGCGCCGGCUGGCCAACAUUCCGAGGGGACCGUCCCCUCGGUAAUGGCGAAUGGGACCCA to GGCCGGCAUGGUCUCAGCCUCCUAGCUGGCGCCGGCUGGGCAACAUUCCGAGGGGACCGUCCCCUCGGUAAUGGCGAAUGGGACCCA, the self-cleavage rises from 0.136 to 0.76.

Going from GGCCGGCAUGGUCCCAGCCUCCGCGCUGGCGCAGGCUGGGCAACAUUCCGAGGGGACCGUCCCCUCGGUAAUGGCGAAUGGGACCCA to GGCCGGCAUGGACCCAGCCUCCUCGCUGGCGACGGCUGGGCAACAUUCCGAGGGGACCGUCCCCUCGGUAAUGGCGAAUGGGACCCA, the self-cleavage rises from 0 to 0.131.

Compared with GGCCGGCAUGGUCCCAGCCUCCUCGCUGGCGCCGGUUGGGCAACAUUCCGAGGGGACCGUCCCCUCGGUAAUGCCGAAUGGGACCCA, GGCCGGCAUGGUCCCUGCCUCCUCGCUGGCGCCGGCUGGGCAACAUUCCGAGGGGACCGUCCCCUCGGUAAUGGCCAAUGGGACCCA is higher in self-cleavage: 0.253 for the first, 0.973 for the second.

Going from GGCCGGCAUGGUCCCAGCCUCCUCGCUGGCGCCGGCUGGGCAACAUUCAGAGGGGACCGUCCCCUCGUUAAUGGCGAAUGGGACCCA to GGCCGGCAUGGUCCCAGCCUCCACACUGGCGCCGGCUGGGCAACAUUCCGAGGGGACCGUCCCCUCGGUAAUGGCGAAUGGGACCCA, the self-cleavage falls from 0.817 to 0.277.

Going from GGCCGGCAUGGUCCCAGACUCCUCGCUCGCGCCGGCUGGGCAACAUUCCGAGGGGACCGUCCCCUCGGUAAUGGCGAAUGGGACCCA to GGCCGGCAUGGUCCCAGCCUCCUCGGUGGCGCCGGCUAGGCAACAUUCCGAGGGGACCGUCCCCUCGGUAAUGGCGAAUGGGACCCA, the self-cleavage rises from 0.095 to 0.0978.
